# Values quoted from earlier work as cited in PMC9760969.
# Biological target: CD95L (Homo sapiens) (UniProt P48023)
# Chain of UniProt P48023 (P48023 130-281): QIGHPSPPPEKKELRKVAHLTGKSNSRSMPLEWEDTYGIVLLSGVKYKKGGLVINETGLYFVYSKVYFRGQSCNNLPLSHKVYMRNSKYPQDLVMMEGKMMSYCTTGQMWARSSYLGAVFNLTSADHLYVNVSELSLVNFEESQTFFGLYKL
substance,measurement,value
DR5 (from UniProt O14763),Kd,1.23 pM
